Source: PMC8185224 (EBioMedicine, 2021)

Target: the molecule itself
Test: SEC; Superdex75 column in 20 mM sodium phosphate buffer, pH 8.0; last step of the purification

B1: recombinant human D-dopachrome tautomerase (natural protein, UniProt P30046 1-118, looked up)
chain: MPFLELDTNLPANRVPAGLEKRLCAAAASILGKPADRVNVTVRPGLAMALSGSTEPCAQLSISSIGVVGTAEDNRSHSAHFFEFLTKELALGQDRILIRFFPLESWQIGKIGTVMTFL
notes: D-dopachrome tautomerase (DDT), human; The protein was active as a tautomerase, so the initiator methionine is probably removed (surmise); also called rhDDT; DDT; source: E. coli BL21(DE3), pET20b(+), purified (Q sepharose, phenyl sepharose, Superdex75 SEC)
stoichiometry N: 3

B2: recombinant murine D-dopachrome tautomerase (natural protein, UniProt O35215 1-118, looked up)
chain: MPFVELETNLPASRIPAGLENRLCAATATILDKPEDRVSVTIRPGMTLLMNKSTEPCAHLLVSSIGVVGTAEQNRTHSASFFKFLTEELSLDQDRIVIRFFPLEAWQIGKKGTVMTFL
notes: D-dopachrome tautomerase (DDT), murine; also called rmDDT; murine DDT; source: E. coli BL21(DE3), pET20b(+), purified (Q sepharose, phenyl sepharose, Superdex75 SEC)
stoichiometry N: 3
